In patent US20230212267A1 one finds IC50, pseudovirus neutralization data, which are given here for one substance.

The target in the assay is SARS-CoV-2 Spike protein on pseudovirus (wild type) (SARS-CoV-2) (UniProt P0DTC2). Nature of the assay: cell-based or functional assay.

As to “ACE2-Ig (positive control of the pseudovirus neutralization assay) (Fc fusion)”, the IC50, pseudovirus neutralization worked out at 0.9 µg/mL.
